Source: article PMC5636753, “Structural basis for DAXX interaction with ATRX” (Protein & Cell, 2017)
Changes are numbered by the printed parent chain. Numbers in names are those of the source. Read-outs that look alike come from different tables or passages of the source.

T1: ATRX_(1,188–1,326) (UniProt P46100 1188-1326)
T1 construct: Alpha-thalassemia/mental retardation syndrome X-linked protein (ATRX), residues 1188-1326
T1 sequence (looked up): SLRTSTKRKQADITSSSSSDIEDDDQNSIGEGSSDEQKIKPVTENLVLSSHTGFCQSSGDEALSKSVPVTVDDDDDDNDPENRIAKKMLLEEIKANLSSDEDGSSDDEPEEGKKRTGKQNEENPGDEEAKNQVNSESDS

T2: DAXX helical bundle (DHB) domain, DAXX_(55–144) (UniProt Q9UER7 55-144)
T2 chain: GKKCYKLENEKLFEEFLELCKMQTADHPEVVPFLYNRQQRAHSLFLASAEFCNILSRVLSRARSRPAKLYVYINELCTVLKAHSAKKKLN

T3: DAXX Y124A (Homo sapiens)
T3 chain: T2 chain with Y70A

T4: DAXX V84A (Homo sapiens)
T4 chain: T2 chain with V30A

T5: DAXX F87A (Homo sapiens)
T5 chain: T2 chain with F33A

T6: DAXX I127A (Homo sapiens)
T6 chain: T2 chain with I73A

T7: DAXX V125A (Homo sapiens)
T7 chain: T2 chain with V71A

B1: DAXX helical bundle (DHB) domain, DAXX_(55–144) (domain or fragment, UniProt Q9UER7 55-144, looked up)
chain: T2 chain
notes: death-domain associated protein (DAXX), N-terminal DAXX helical bundle (DHB) domain; model of the crystal covers residues 57-141; Limits 55-144 are printed for the mutagenesis panel; Crystals were selenomethionine-substituted; also called DAXXDHB; DAXX DHB
B2: ATRX_(1,253–1,326) (domain or fragment)
chain: SVPVTVDDDDDDNDPENRIAKKMLLEEIKANLSSDEDGSSDDEPEEGKKRTGKQNEENPGDEEAKNQVNSESDS
B3: ATRX A1272R (protein)
chain: B2 chain with A20R
B4: ATRX I1280A (protein)
chain: B2 chain with I28A
B5: ATRX L1276A (protein)
chain: B2 chain with L24A
B6: ATRX L1276Q (protein)
chain: B2 chain with L24Q
B7: ATRX L1276A/I1280A (protein)
chain: B2 chain with L24A, I28A
B8: ATRX I1280Q (protein)
chain: B2 chain with I28Q
B9: ATRX I1280R (protein)
chain: B2 chain with I28R
B10: ATRX L1277R (protein)
chain: B2 chain with L25R
B11: ATRX L1276R (protein)
chain: B2 chain with L24R

Legend:
ATRX_(1,188–1,326) = biological target: T1, ATRX_(1,188–1,326); experiment: ITC; isothermal titration calorimetry of ATRX fragments with DAXXDHB; conditions not shown (methods in the supplement); conditions: both partners purified
[1] = biological target: T2, DAXX helical bundle (DHB) domain, …; experiment: ITC
[2] = biological target: DAXX helical bundle (DHB) domain, DAXX_(55–144) (UniProt Q9UER7); experiment: ITC; isothermal titration calorimetry of ATRX fragments with DAXXDHB; conditions not shown (methods in the supplement)
[3] = biological target: T2, DAXX helical bundle (DHB) domain, …; experiment: ITC
DAXX Y124A = biological target: T3, DAXX Y124A; experiment: ITC
DAXX V84A = biological target: T4, DAXX V84A; experiment: ITC
DAXX F87A = biological target: T5, DAXX F87A; experiment: ITC
DAXX I127A = biological target: T6, DAXX I127A; experiment: ITC
DAXX V125A = biological target: T7, DAXX V125A; experiment: ITC

| Binder | Kd [1] | other results |
| --- | --- | --- |
| B1 |  | Kd (ATRX_(1,188–1,326)): 160 nM |
| ENRIAKKMLLEEIKANLSSDED (domain or fragment) [ATRXDBM with deletion of N-terminal eight residues] | 10300 nM | fold decrease in affinity against ATRXDBM [2]: 60 fold |
| AAAAANDPENRIAKKMLLEEIKANLSSDED [ATRX 1,260–1,289 M1 (D1260A/D1261A/D1262A/D1263A/D1264A)] | 850 nM |  |
| DDDDDNAPANRIAKKMLLEEIKANLSSDED [ATRX 1,260–1,289 M2 (D1266A/E1268A)] | 1750 nM |  |
| DDDDDNDPENRIAKKMLLEEIKANLSSDED (domain or fragment) [DAXX-binding motif of ATRX, ATRX_(1,260–1,289)] | 160 nM |  |
| B2 | 160 nM | Kd [3]: 170 nM; Kd (DAXX Y124A): 5920 nM; Kd (DAXX V84A): 2040 nM; Kd (DAXX F87A): 2190 nM; Kd (DAXX I127A): 810 nM; Kd (DAXX V125A): 280 nM |
| B3 | 1040 nM |  |
| B4 | 400 nM |  |
| B5 | 8330 nM |  |
| B6 | 43300 nM |  |
| B7 | 12000 nM |  |
| B8 | 7350 nM |  |
| B9 | 34800 nM |  |
| B10 | 970 nM |  |
| B11 | 73500 nM |  |
